Experimental data: patent US20240117018A1

Experiments:
Experiment in all cases: cell-based or functional assay
[1] = target: Env of HIV-1 pseudovirus PVO.4 (HIV-1)
[2] = target: Env of HIV-1 pseudovirus Ce2010_F5 (HIV-1)
[3] = target: Env of HIV-1 pseudovirus Ce0682_E4 (HIV-1)
[4] = target: Env of HIV-1 pseudovirus HIV-0013095-2.11 (HIV-1)
[5] = target: Env of HIV-1 pseudovirus 191955_A11 (HIV-1)
[6] = target: Env of HIV-1 pseudovirus Ce0393_C3 (HIV-1)
[7] = target: Env of HIV-1 pseudovirus 1012_11_TC21_3257 (HIV-1)
[8] = target: Env of HIV-1 pseudovirus Du422.1 (HIV-1)
[9] = target: Env of HIV-1 pseudovirus CAAN5342.A2 (HIV-1)
[10] = target: Env of HIV-1 pseudovirus ZM214M.PL15 (HIV-1)
[11] = target: Env of HIV-1 pseudovirus 62357_14_D3_4589 (HIV-1)
[12] = target: Env of HIV-1 pseudovirus Ce1172_H1 (HIV-1)
[13] = target: Env of HIV-1 pseudovirus RHPA4259.7 (HIV-1)
[14] = target: Env of HIV-1 pseudovirus 6244_13_B5_4576 (HIV-1)

Row | Substance | IC50 [1] [µg/mL] | IC80 [1] [µg/mL] | IC50 [2] [µg/mL] | IC80 [2] [µg/mL] | IC50 [3] [µg/mL] | IC80 [3] [µg/mL] | IC50 [4] [µg/mL] | IC80 [4] [µg/mL] | IC50 [5] [µg/mL] | IC80 [5] [µg/mL] | IC50 [6] [µg/mL] | IC80 [6] [µg/mL] | IC50 [7] [µg/mL] | IC80 [7] [µg/mL] | IC50 [8] [µg/mL] | IC80 [8] [µg/mL] | IC50 [9] [µg/mL] | IC80 [9] [µg/mL] | IC50 [10] [µg/mL] | IC80 [10] [µg/mL] | further results
1 | 10-1074 (antibody) | 0.074 | 0.36 | > 50 | > 50 | > 50 | > 50 | > 50 | > 50 | > 50 | > 50 | > 50 | > 50 | 0.008 | 0.059 | 0.045 | 0.166 | 0.007 | 0.036 | 0.174 | 2.37 | IC50 [11]: > 50 µg/mL; IC80 [11]: > 50 µg/mL; IC50 [12]: 0.047 µg/mL; IC80 [12]: 0.166 µg/mL; IC50 [13]: 0.021 µg/mL; IC80 [13]: 0.118 µg/mL; IC50 [14]: 0.202 µg/mL; IC80 [14]: 0.922 µg/mL
2 | PG16 (antibody) | 15.3 | > 50 | > 50 | > 50 | 0.026 | 0.202 | 0.002 | 0.006 | 0.009 | 0.042 | 0.002 | 0.006 | 0.03 | 0.219 | 0.261 | 33.8 | 1.83 | 33 | > 50 | > 50 | IC50 [11]: > 50 µg/mL; IC80 [11]: > 50 µg/mL; IC50 [12]: 0.007 µg/mL; IC80 [12]: 0.037 µg/mL; IC50 [13]: 0.375 µg/mL; IC80 [13]: 3.92 µg/mL; IC50 [14]: > 50 µg/mL; IC80 [14]: > 50 µg/mL
3 | PG9 (antibody) | 10.6 | > 50 | > 50 | > 50 | 0.196 | 0.698 | 0.01 | 0.03 | 0.053 | 0.154 | 0.02 | 0.055 | 0.172 | 0.605 | 0.614 | 10.4 | 4.6 | 27 | > 50 | > 50 | IC50 [11]: > 50 µg/mL; IC80 [11]: > 50 µg/mL; IC50 [12]: 0.07 µg/mL; IC80 [12]: 0.206 µg/mL; IC50 [13]: 22.6 µg/mL; IC80 [13]: > 50 µg/mL; IC50 [14]: > 50 µg/mL; IC80 [14]: > 50 µg/mL
